According to publication PMC6895265:

Biological target: TCF4 bHLH domain (Homo sapiens, UniProt P15884 565-624)
Test: ITC

Sequence of TCF4 bHLH domain (P15884 565-624): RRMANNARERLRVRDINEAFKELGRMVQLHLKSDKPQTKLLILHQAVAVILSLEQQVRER

Binder | binding result
12-mer TA-flanked, X=M (dsDNA, 5mC at C4 and C6 of both strands) DNA 1: ATACACGTGTAT DNA 2: ATACACGTGTAT | no binding
12-mer TA-flanked, X=H (dsDNA, 5hmC at C4 and C6 of both strands) DNA 1: ATACACGTGTAT DNA 2: ATACACGTGTAT | no binding
